Where no end group is shown, it is not given here. [ ]: non-standard residue; d: D form. Nle = CCCC[C@H](N)C(=O)O

One may read the IC50 as the point on the concentration scale where inhibition reaches its midpoint. The low end stands for inhibition by little substance, the high end for a need for much substance.

The target in assay [1] is embryonic chicken AT4 receptor (chicken). Put plainly: competition for [125I]Ang IV binding, E13 chicken chorioallantoic membranes.
For assay [2], the target named is embryonic chicken Ang II receptor (chicken). Put plainly: competition for 125I[Sar1Ile8]Ang II binding, E13 chicken chorioallantoic membranes.
embryonic chicken Ang II receptor (chicken), sequence (P79785 whole entry): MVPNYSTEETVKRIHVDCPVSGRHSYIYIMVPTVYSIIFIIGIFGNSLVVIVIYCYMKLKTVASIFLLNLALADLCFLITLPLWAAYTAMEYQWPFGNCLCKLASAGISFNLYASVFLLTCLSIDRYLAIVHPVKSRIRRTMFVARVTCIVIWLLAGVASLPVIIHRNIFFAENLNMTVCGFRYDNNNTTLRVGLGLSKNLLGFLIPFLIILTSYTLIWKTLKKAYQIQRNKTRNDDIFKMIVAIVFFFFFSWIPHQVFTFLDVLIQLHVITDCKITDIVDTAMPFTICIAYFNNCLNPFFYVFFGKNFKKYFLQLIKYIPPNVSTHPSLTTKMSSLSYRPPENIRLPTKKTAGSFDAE

embryonic chicken AT4 receptor (chicken), sequence (F1NNE7 entry or part of it): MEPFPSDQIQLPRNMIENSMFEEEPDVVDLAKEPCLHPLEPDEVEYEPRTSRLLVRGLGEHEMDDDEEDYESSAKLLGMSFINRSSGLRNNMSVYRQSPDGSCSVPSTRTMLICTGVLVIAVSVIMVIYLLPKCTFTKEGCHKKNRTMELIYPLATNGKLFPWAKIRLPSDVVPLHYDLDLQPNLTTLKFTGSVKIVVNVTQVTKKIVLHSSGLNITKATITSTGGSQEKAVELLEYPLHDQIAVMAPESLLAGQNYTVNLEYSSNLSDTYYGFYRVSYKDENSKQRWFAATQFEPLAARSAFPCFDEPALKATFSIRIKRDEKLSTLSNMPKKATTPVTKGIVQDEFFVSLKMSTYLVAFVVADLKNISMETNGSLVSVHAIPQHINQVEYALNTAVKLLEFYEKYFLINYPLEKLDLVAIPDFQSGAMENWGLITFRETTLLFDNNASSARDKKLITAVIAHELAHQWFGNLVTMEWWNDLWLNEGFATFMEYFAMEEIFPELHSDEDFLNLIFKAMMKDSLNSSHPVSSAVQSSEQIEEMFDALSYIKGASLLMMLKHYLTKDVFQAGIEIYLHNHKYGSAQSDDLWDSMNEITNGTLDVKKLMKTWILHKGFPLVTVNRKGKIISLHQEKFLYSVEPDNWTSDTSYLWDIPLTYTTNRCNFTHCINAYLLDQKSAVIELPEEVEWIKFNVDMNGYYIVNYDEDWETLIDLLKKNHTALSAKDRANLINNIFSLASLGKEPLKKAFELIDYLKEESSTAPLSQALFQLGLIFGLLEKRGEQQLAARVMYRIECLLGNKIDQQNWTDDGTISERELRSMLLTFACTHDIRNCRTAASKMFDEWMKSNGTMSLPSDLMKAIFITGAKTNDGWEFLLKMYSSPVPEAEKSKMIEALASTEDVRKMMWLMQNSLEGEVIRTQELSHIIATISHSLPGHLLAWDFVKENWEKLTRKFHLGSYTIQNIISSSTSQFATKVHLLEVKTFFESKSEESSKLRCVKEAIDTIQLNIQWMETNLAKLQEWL

Consider [Nle]YIHPF [Nle^1-AIV], for which the figures for the IC50 in assay [1] and in assay [2] were 0.043 µM and 8 µM, respectively.

(Values after US20020147129A1.)
